Stoichiometry N data for one substance are collected here from PMC9342783.

The target of test [1] is membrane translocated mature FopA (Francisella tularensis outer membrane protein A) with C-terminal octa-histidine tag (F. tularensis subsp. tularensis strain SCHU S4). As to the kind of experiment: small angle X-ray scattering (SEC-SAXS). Background: SEC sorts molecules by how far they enter the pores of the column.
Test [2] shares this target. The experiment in a line: native gel or EMSA. In general terms: A gel shift assay detects complexes by their altered migration in electrophoresis.

As usually defined, the stoichiometry N is the number of molecules, sites or subunits per partner or assembly. As for “membrane translocated mature FopA (Francisella tularensis outer membrane protein A) with C-terminal octa-histidine tag (natural protein)”, the stoichiometry N in test [1] and in test [2] was 2 throughout.
